Laboratory results taken from the supplement of paper PMC10567573.

B1: ZNF649 (parent)
chain: MTKAQESLTLEDVAVDFTWEEWQF

Variants of: B1
Assay: protein stability index of a GFP-peptide fusion (GPS, HEK-293T) (PSI 1-6); higher = more stable
Details: c terminus: a fixed tail appended
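Also: lentivirally expressed fusions sorted by FACS into six bins by GFP to DsRed ratio, PSI derived from sequencing read proportions per bin multiplied by bin number.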

Q: With MTKAQESLTLHDVAVDFTWEEWQF as the variant, how does the protein stability index read?
A: 2

Q: With MTKAQESLTLTDVAVDFTWEEWQF as the variant, how does the protein stability index read?
A: 2.86

Q: For MTKAQESLTLADVAVDFTWEEWQF, which protein stability index is on record?
A: 2.39

Q: With MTKAQESLTLMDVAVDFTWEEWQF as the variant, how does the protein stability index read?
A: 2.14

Q: With MTKAQESLTLSDVAVDFTWEEWQF as the variant, how does the protein stability index read?
A: 2.83

Q: With MTKAQESLTLQDVAVDFTWEEWQF as the variant, how does the protein stability index read?
A: 3.9

Q: For MTKAQESLTLRDVAVDFTWEEWQF, which protein stability index is on record?
A: 2.39

Q: Which protein stability index does the source give for MTKAQESLTLPDVAVDFTWEEWQF here?
A: 2.69

Q: For MTKAQESLTLYDVAVDFTWEEWQF, which protein stability index is on record?
A: 1.28

Q: For MTKAQESLTLVDVAVDFTWEEWQF, which protein stability index is on record?
A: 1.43

Q: For MTKAQESLTLKDVAVDFTWEEWQF, which protein stability index is on record?
A: 2.62

Q: With MTKAQESLTLIDVAVDFTWEEWQF as the variant, how does the protein stability index read?
A: 2.25

Q: For MTKAQESLTLFDVAVDFTWEEWQF, which protein stability index is on record?
A: 1.44

Q: For MTKAQESLTLCDVAVDFTWEEWQF, which protein stability index is on record?
A: 2.12

Q: Which protein stability index does the source give for MTKAQESLTLGDVAVDFTWEEWQF here?
A: 2.98

Q: For MTKAQESLTLDDVAVDFTWEEWQF, which protein stability index is on record?
A: 3.57

Q: Which protein stability index does the source give for MTKAQESLTLWDVAVDFTWEEWQF here?
A: 2.13

Q: Which protein stability index does the source give for MTKAQESLTLNDVAVDFTWEEWQF here?
A: 3.28

Q: With MTKAQESLTLLDVAVDFTWEEWQF as the variant, how does the protein stability index read?
A: 1.56

Q: For MTKKQESLTLEDVAVDFTWEEWQF, which protein stability index is on record?
A: 3.15

Q: Which protein stability index does the source give for MTKDQESLTLEDVAVDFTWEEWQF here?
A: 3.48

Q: With MTKGQESLTLEDVAVDFTWEEWQF as the variant, how does the protein stability index read?
A: 2.94

Q: For MTKCQESLTLEDVAVDFTWEEWQF, which protein stability index is on record?
A: 2.4

Q: For MTKPQESLTLEDVAVDFTWEEWQF, which protein stability index is on record?
A: 3.75

Q: With MTKVQESLTLEDVAVDFTWEEWQF as the variant, how does the protein stability index read?
A: 2.52

Q: With MTKQQESLTLEDVAVDFTWEEWQF as the variant, how does the protein stability index read?
A: 3.18

Q: For MTKSQESLTLEDVAVDFTWEEWQF, which protein stability index is on record?
A: 3.45

Q: Which protein stability index does the source give for MTKTQESLTLEDVAVDFTWEEWQF here?
A: 3.11

Q: For MTKMQESLTLEDVAVDFTWEEWQF, which protein stability index is on record?
A: 2.5

Q: With MTKLQESLTLEDVAVDFTWEEWQF as the variant, how does the protein stability index read?
A: 3.71

Q: For MTKHQESLTLEDVAVDFTWEEWQF, which protein stability index is on record?
A: 3.48

Q: For MTKIQESLTLEDVAVDFTWEEWQF, which protein stability index is on record?
A: 2.89

Q: Which protein stability index does the source give for MTKYQESLTLEDVAVDFTWEEWQF here?
A: 2.56

Q: For MTKWQESLTLEDVAVDFTWEEWQF, which protein stability index is on record?
A: 2.15

Q: For MTKNQESLTLEDVAVDFTWEEWQF, which protein stability index is on record?
A: 3.04

Q: With MTKEQESLTLEDVAVDFTWEEWQF as the variant, how does the protein stability index read?
A: 3.66

Q: For MTKRQESLTLEDVAVDFTWEEWQF, which protein stability index is on record?
A: 2.97

Q: Which protein stability index does the source give for MTKFQESLTLEDVAVDFTWEEWQF here?
A: 2.51

Q: Which protein stability index does the source give for MTKAQEQLTLEDVAVDFTWEEWQF here?
A: 3.68

Q: For MTKAQEYLTLEDVAVDFTWEEWQF, which protein stability index is on record?
A: 2.54

Q: With MTKAQEDLTLEDVAVDFTWEEWQF as the variant, how does the protein stability index read?
A: 3.75

Q: With MTKAQENLTLEDVAVDFTWEEWQF as the variant, how does the protein stability index read?
A: 3.39

Q: For MTKAQEKLTLEDVAVDFTWEEWQF, which protein stability index is on record?
A: 3.01

Q: With MTKAQEGLTLEDVAVDFTWEEWQF as the variant, how does the protein stability index read?
A: 3.8

Q: Which protein stability index does the source give for MTKAQEWLTLEDVAVDFTWEEWQF here?
A: 1.72

Q: With MTKAQEHLTLEDVAVDFTWEEWQF as the variant, how does the protein stability index read?
A: 2.6

Q: With MTKAQEVLTLEDVAVDFTWEEWQF as the variant, how does the protein stability index read?
A: 2.5

Q: Which protein stability index does the source give for MTKAQEALTLEDVAVDFTWEEWQF here?
A: 2.82

Q: For MTKAQEELTLEDVAVDFTWEEWQF, which protein stability index is on record?
A: 3.93

Q: Which protein stability index does the source give for MTKAQEFLTLEDVAVDFTWEEWQF here?
A: 3.2

Q: For MTKAQEMLTLEDVAVDFTWEEWQF, which protein stability index is on record?
A: 2.69

Q: Which protein stability index does the source give for MTKAQECLTLEDVAVDFTWEEWQF here?
A: 2.9

Q: With MTKAQEILTLEDVAVDFTWEEWQF as the variant, how does the protein stability index read?
A: 3.1

Q: Which protein stability index does the source give for MTKAQERLTLEDVAVDFTWEEWQF here?
A: 3.55

Q: With MTKAQELLTLEDVAVDFTWEEWQF as the variant, how does the protein stability index read?
A: 2.43

Q: With MTKAQEPLTLEDVAVDFTWEEWQF as the variant, how does the protein stability index read?
A: 3.14

Q: With MTKAQETLTLEDVAVDFTWEEWQF as the variant, how does the protein stability index read?
A: 3.67

Q: With MTWAQESLTLEDVAVDFTWEEWQF as the variant, how does the protein stability index read?
A: 2.53

Q: For MTRAQESLTLEDVAVDFTWEEWQF, which protein stability index is on record?
A: 3.12

Q: For MTQAQESLTLEDVAVDFTWEEWQF, which protein stability index is on record?
A: 2.98

Q: For MTMAQESLTLEDVAVDFTWEEWQF, which protein stability index is on record?
A: 2.64

Q: With MTYAQESLTLEDVAVDFTWEEWQF as the variant, how does the protein stability index read?
A: 2.64

Q: With MTPAQESLTLEDVAVDFTWEEWQF as the variant, how does the protein stability index read?
A: 3.33

Q: Which protein stability index does the source give for MTVAQESLTLEDVAVDFTWEEWQF here?
A: 3.23

Q: With MTSAQESLTLEDVAVDFTWEEWQF as the variant, how does the protein stability index read?
A: 3.85

Q: Which protein stability index does the source give for MTTAQESLTLEDVAVDFTWEEWQF here?
A: 3.33

Q: With MTNAQESLTLEDVAVDFTWEEWQF as the variant, how does the protein stability index read?
A: 3.65

Q: Which protein stability index does the source give for MTKAQESDTLEDVAVDFTWEEWQF here?
A: 4.41

Q: Which protein stability index does the source give for MTKAQESITLEDVAVDFTWEEWQF here?
A: 3.05

Q: For MTKAQESTTLEDVAVDFTWEEWQF, which protein stability index is on record?
A: 3.93

Q: Which protein stability index does the source give for MTKAQESRTLEDVAVDFTWEEWQF here?
A: 3.79

Q: Which protein stability index does the source give for MTKAQESWTLEDVAVDFTWEEWQF here?
A: 2.23

Q: Which protein stability index does the source give for MTKAQESVTLEDVAVDFTWEEWQF here?
A: 3.59

Q: For MTKAQESKTLEDVAVDFTWEEWQF, which protein stability index is on record?
A: 4.31

Q: Which protein stability index does the source give for MTKAQESSTLEDVAVDFTWEEWQF here?
A: 4.47

Q: With MTKAQESMTLEDVAVDFTWEEWQF as the variant, how does the protein stability index read?
A: 3.62

Q: Which protein stability index does the source give for MTKAQESNTLEDVAVDFTWEEWQF here?
A: 4.42

Q: Which protein stability index does the source give for MTKAQESHTLEDVAVDFTWEEWQF here?
A: 4.05

Q: Which protein stability index does the source give for MTKAQESFTLEDVAVDFTWEEWQF here?
A: 2.5

Q: Which protein stability index does the source give for MTKAQESETLEDVAVDFTWEEWQF here?
A: 4.39

Q: With MTKAQESYTLEDVAVDFTWEEWQF as the variant, how does the protein stability index read?
A: 2.7

Q: Which protein stability index does the source give for MTKAQESCTLEDVAVDFTWEEWQF here?
A: 3.42

Q: For MTKAQESGTLEDVAVDFTWEEWQF, which protein stability index is on record?
A: 4.11

Q: Which protein stability index does the source give for MTKAQESATLEDVAVDFTWEEWQF here?
A: 4.22

Q: With MTKAQESPTLEDVAVDFTWEEWQF as the variant, how does the protein stability index read?
A: 3.58

Q: For MTKAQESLELEDVAVDFTWEEWQF, which protein stability index is on record?
A: 3.94

Q: For MTKAQESLYLEDVAVDFTWEEWQF, which protein stability index is on record?
A: 2.41

Q: With MTKAQESLRLEDVAVDFTWEEWQF as the variant, how does the protein stability index read?
A: 3.59

Q: Which protein stability index does the source give for MTKAQESLWLEDVAVDFTWEEWQF here?
A: 2.54

Q: For MTKAQESLLLEDVAVDFTWEEWQF, which protein stability index is on record?
A: 2.54

Q: Which protein stability index does the source give for MTKAQESLSLEDVAVDFTWEEWQF here?
A: 3.43

Q: Which protein stability index does the source give for MTKAQESLFLEDVAVDFTWEEWQF here?
A: 3.35

Q: With MTKAQESLQLEDVAVDFTWEEWQF as the variant, how does the protein stability index read?
A: 3.58

Q: Which protein stability index does the source give for MTKAQESLCLEDVAVDFTWEEWQF here?
A: 3.52
